Target: ATXN2 (UniProt Q99700 1-1313, limits assumed)
Assay: fluorescence microscopy, co-localization in cells

Sequence of ATXN2 (Q99700 whole entry): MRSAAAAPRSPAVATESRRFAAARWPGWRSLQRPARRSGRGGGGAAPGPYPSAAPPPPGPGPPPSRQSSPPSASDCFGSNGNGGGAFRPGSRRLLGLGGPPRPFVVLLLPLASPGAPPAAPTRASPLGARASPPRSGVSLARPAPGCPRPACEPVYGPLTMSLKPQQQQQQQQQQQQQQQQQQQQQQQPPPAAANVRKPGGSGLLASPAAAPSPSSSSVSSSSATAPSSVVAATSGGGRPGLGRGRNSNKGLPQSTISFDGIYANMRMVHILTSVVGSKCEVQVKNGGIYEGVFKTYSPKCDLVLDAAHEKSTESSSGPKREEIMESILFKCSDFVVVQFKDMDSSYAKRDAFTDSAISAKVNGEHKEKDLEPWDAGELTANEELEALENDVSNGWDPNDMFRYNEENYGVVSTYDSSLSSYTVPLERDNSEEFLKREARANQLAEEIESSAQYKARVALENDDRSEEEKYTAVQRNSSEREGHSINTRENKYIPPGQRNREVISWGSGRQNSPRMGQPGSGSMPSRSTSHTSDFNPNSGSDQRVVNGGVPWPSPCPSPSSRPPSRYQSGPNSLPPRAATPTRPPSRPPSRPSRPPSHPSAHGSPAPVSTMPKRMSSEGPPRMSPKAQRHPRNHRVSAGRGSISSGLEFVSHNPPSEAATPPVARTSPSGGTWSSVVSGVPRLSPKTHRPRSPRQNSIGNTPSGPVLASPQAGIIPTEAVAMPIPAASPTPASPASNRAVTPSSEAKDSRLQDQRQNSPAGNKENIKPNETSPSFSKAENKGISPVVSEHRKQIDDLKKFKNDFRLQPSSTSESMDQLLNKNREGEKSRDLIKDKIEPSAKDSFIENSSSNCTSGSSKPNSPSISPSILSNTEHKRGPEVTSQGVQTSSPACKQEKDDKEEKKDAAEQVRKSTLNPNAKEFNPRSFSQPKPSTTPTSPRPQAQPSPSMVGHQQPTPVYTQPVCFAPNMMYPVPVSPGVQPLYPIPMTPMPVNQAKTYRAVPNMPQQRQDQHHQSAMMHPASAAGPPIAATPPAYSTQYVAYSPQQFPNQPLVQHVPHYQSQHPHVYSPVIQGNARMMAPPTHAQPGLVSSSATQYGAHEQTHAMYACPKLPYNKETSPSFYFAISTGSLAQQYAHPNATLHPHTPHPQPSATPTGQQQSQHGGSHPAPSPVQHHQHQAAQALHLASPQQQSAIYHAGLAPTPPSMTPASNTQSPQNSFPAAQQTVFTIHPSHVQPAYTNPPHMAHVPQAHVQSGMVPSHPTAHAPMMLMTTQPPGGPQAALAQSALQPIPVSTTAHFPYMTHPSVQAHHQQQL

- binding result: no binding
B1: GFP-PopTag (other)
chain: GGGGSGGGGSGGGGSGGGGSEVAEQLVGVSAASAAASAFGSLSSALLMPKDGRTLEDVVRELLRPLLKEWLDQNLPRIVETKVEEEVQRISRGRGA
notes: also called GFP-PopTag condensates; not shown: GFP; constructs subcloned into pcDNA3.1+N-eGFP

Source: patent US20230044825A1 (CZ BIOHUB SF, published 2023)
